Laboratory results from paper PMC5702613 (Nature Communications, 2017).

B1: Ubc13 (C87K, K92T, K94Q), the E2 moiety of the Ubc13~Ub conjugate (enzyme)
chain: MAGLPRRIIKETQRLLAEPVPGIKAEPDESNARYFHVVIAGPQDSPFEGGTFKLELFLPEEYPMAAPKVRFMTKIYHPNVDKLGRIKLDILTDQWSPALQIRTVLLSIQALLSAPNPDDPLANDVAEQWKTNEAQAIETARAWTRLYAMNNI
modifications: isopeptide-linked to ubiquitin (C87K allows the stable isopeptide link)
notes: Ubc13 (also called Ube2N), E2 enzyme, with C87K, K92T and K94Q; Stands in the structures only as the Ubc13 moiety of the conjugate m4; also called Ube2N; not shown: GST, N-terminal, cleaved
B2: Danio rerio TRAF6 RZ1 (RING and ZF1, residues 50-159) (domain or fragment, UniProt Q6IWL4 50-159, looked up)
chain: MPPDQQGYDVEFDPPLESKYECPICLMGLRSAVQTPCGHRFCDSCIRKSIRDTGQKCPVDNEVLLEEQLFPDNFAKREILSLTVKCSNFGCSEKMELRQLEKHLSQCRFA
notes: TRAF6, Danio rerio, residues 50-159 (RING and ZF1), 13.7 kDa, in pET24b; also called DrRZ1; source: E. coli BL21 (DE3), purified (HisTrap, size exclusion)
B3: Danio rerio TRAF6 RZ3 (residues 50-213) (domain or fragment, UniProt Q6IWL4 50-213, looked up)
chain: MPPDQQGYDVEFDPPLESKYECPICLMGLRSAVQTPCGHRFCDSCIRKSIRDTGQKCPVDNEVLLEEQLFPDNFAKREILSLTVKCSNFGCSEKMELRQLEKHLSQCRFATAPCPQCQESVPISHLDEHKSQHCLQRIMTCPDCAGSFVYAVKQNHEQFCPFAN
notes: TRAF6, Danio rerio, residues 50-213 (RING and ZF1-3), 19.7 kDa, in pET24b; also called DrRZ3; D. rerio RZ3 TRAF6; source: E. coli BL21 (DE3), purified (HisTrap, size exclusion)
B4: Homo sapiens TRAF6 RZ3 (RING domain and first three zinc fingers, residues 50-211) (domain or fragment, UniProt Q9Y4K3 50-211, looked up)
chain: MEEIQGYDVEFDPPLESKYECPICLMALREAVQTPCGHRFCKACIIKSIRDAGHKCPVDNEILLENQLFPDNFAKREILSLMVKCPNEGCLHKMELRHLEDHQAHCEFALMDCPQCQRPFQKFHINIHILKDCPRRQVSCDNCAASMAFEDKEIHDQNCPLA
notes: TNF receptor-associated factor 6 (TRAF6), human, residues 50-211 (RING and ZF1-3), 20.0 kDa, in pET21d; also called HsRZ3; wild-type HsRZ3; source: E. coli BL21 (DE3), purified (HisTrap, size exclusion)

Tests used:
[1] = target: T1, ubiquitin (wild-type), the ubiquitin moiety of the Ubc13~Ub conjugate (UniProt P0CG48 1-76, isopeptide-linked to Ubc13); assay: crystal structure; DrRZ1-Ubc13~Ub complex, 3.4 Å, C222(1); sodium citrate, 100 mM Bis-Tris propane, 17-23% PEG 3350; conditions: both partners purified
T1 construct: ubiquitin, wild-type, expressed untagged; Stands in the structures only as the ubiquitin moiety of the conjugate m4; In the activity assays labelled or mutated ubiquitins (Cy3-Met-Cys-ubiquitin K63R, D77 ubiquitin) were used; source: E. coli BL21 (DE3), untagged, purified (HiTrap SP, Superdex 75)

[2] = target: B3; assay: crystal structure; DrRZ3-Ubc13~Ub complex, 3.9 Å, P4(2)2(1)2; 100-200 mM Na/K tartrate, 11-15% PEG 3350, 100 mM Bis-Tris propane pH 7.5; conditions: both partners purified
[3] = target: T2, isopeptide-linked Ubc13-ubiquitin conjugate (Ubc13 C87K, K92T, K94Q linked to wild-type ubiquitin) (UniProt P61088 1-152; P0CG48 1-76, C87K | K92T | K94Q, isopeptide-linked to ubiquitin (C87K allows the stable isopeptide link) | isopeptide-linked to Ubc13); assay: crystal structure; DrRZ1-Ubc13~Ub complex, 3.4 Å, C222(1); sodium citrate, 100 mM Bis-Tris propane, 17-23% PEG 3350; conditions: both partners purified
T2 construct: Ubc13 (also called Ube2N), E2 enzyme, with C87K, K92T and K94Q; ubiquitin, wild-type, expressed untagged; Two chains joined covalently by an isopeptide bond; also called Ubc13~Ub conjugate; source: proteins from E. coli BL21 (DE3); conjugated in vitro with E1 and ATP, purified (Superdex 75); not shown: GST, N-terminal, cleaved

[4] = target: B1; assay: as above; conditions: both partners purified
[5] = target: the molecule itself; assay: as above
[6] = target: T2, isopeptide-linked Ubc13-ubiquitin …; assay: SEC; DrRZ3 and Ubc13~Ub at 250 µM, alone or mixed, Superdex 200 10/300, 20 mM Tris-HCl pH 7.5, 150 mM NaCl; fractions on 16% SDS-PAGE; conditions: both partners purified
[7] = target: T1, ubiquitin (wild-type), the ubiquitin …; assay: crystal structure; DrRZ3-Ubc13~Ub complex, 3.9 Å, P4(2)2(1)2; 100-200 mM Na/K tartrate, 11-15% PEG 3350, 100 mM Bis-Tris propane pH 7.5; conditions: both partners purified
[8] = target: the molecule itself; assay: as above
[9] = target: T2, isopeptide-linked Ubc13-ubiquitin …; assay: pull-down; GST-fused Uev1A on resin mixed with TRAF6, Ubc13 and Ubc13~Ub conjugates; PBS, 0.2% TWEEN 20, 1 mM DTT, 4 °C, 1 h; Coomassie-stained SDS-PAGE; conditions: both partners purified

B1
binding result [1]: binds | binding result [2]: binds

B2
binding result [3]: binds | binding result [4]: binds | binding result [1]: binds | stoichiometry N [5]: 2

B3
binding result [6]: binds | binding result [7]: binds | stoichiometry N [8]: 2

B4
binding result [9]: binds
